IntAct's records for PubMed 20935625

B1: Dynamin-1 (Homo sapiens), Q05193-5 (parent)
chain: MGNRGMEDLIPLVNRLQDAFSAIGQNADLDLPQIAVVGGQSAGKSSVLENFVGRDFLPRGSGIVTRRPLVLQLVNATTEYAEFLHCKGKKFTDFEEVRLEIEAETDRVTGTNKGISPVPINLRVYSPHVLNLTLVDLPGMTKVPVGDQPPDIEFQIRDMLMQFVTKENCLILAVSPANSDLANSDALKVAKEVDPQGQRTIGVITKLDLMDEGTDARDVLENKLLPLRRGYIGVVNRSQKDIDGKKDITAALAAERKFFLSHPSYRHLADRMGTPYLQKVLNQQLTNHIRDTLPGLRNKLQSQLLSIEKEVEEYKNFRPDDPARKTKALLQMVQQFAVDFEKRIEGSGDQIDTYELSGGARINRIFHERFPFELVKMEFDEKELRREISYAIKNIHGIRTGLFTPDLAFEATVKKQVQKLKEPSIKCVDMVVSELTATIRKCSEKLQQYPRLREEMERIVTTHIREREGRTKEQVMLLIDIELAYMNTNHEDFIGFANAQQRSNQMNKKKTSGNQDEILVIRKGWLTINNIGIMKGGSKEYWFVLTAENLSWYKDDEEKEKKYMLSVDNLKLRDVEKGFMSSKHIFALFNTEQRNVYKDYRQLELACETQEEVDSWKASFLRAGVYPERVGDKEKASETEENGSDSFMHSMDPQLERQVETIRNLVDSYMAIVNKTVRDLMPKTIMHLMINNTKEFIFSELLANLYSCGDQNTLMEESAEQAQRRDEMLRMYHALKEALSIIGDINTTTVSTPMPPPVDDSWLQVQSVPAGRRSPTSSPTPQRRAPAVPPARPGSRGPAPGPPPAGSALGGAPPVPSRPGASPDPFGPPPQVPSRPNRAPPGVPRITISDP

Variants of: B1
Conditions: with acts_rabit ACTA1, P68135

Variant	effect of a mutation on the interaction
K419A	decreasing interaction
K414A	decreasing interaction
K415A	decreasing interaction

Second part, the variant after the results:

effect of a mutation on the interaction	Variant
decreasing interaction	K421A
decreasing interaction	K426A

Variants of: B1
Conditions: with acts_rabit ACTA1, P68135
Remark: another data set of the same source

Variant	effect of a mutation on the interaction
K414E	decreasing interaction
K415E	decreasing interaction

The next lines start with the values.

effect of a mutation on the interaction	Variant
decreasing interaction	K419E
decreasing interaction	K421E
decreasing interaction	K426E

Variants of: B1
Conditions: with acts_rabit ACTA1, P68135
Remark: another data set of the same source

effect of a mutation on the interaction	Variant
increasing interaction	E434K
